Measurements: paper PMC4298689 (The Journal of Cell Biology, 2015)
Non-standard residues stand in square brackets, D forms with d. No end group written: not given here. pT = C[C@@H](OP(=O)(O)O)[C@H](N)C(=O)O

T1: His6-tagged recombinant Mis12C containing Dsn1-WT (human, UniProt Q9H410 1-356; Q96IY1 1-258; Q9H081 1-205; Q6P1K2 1-205)
T1 sequence (looked up) 1: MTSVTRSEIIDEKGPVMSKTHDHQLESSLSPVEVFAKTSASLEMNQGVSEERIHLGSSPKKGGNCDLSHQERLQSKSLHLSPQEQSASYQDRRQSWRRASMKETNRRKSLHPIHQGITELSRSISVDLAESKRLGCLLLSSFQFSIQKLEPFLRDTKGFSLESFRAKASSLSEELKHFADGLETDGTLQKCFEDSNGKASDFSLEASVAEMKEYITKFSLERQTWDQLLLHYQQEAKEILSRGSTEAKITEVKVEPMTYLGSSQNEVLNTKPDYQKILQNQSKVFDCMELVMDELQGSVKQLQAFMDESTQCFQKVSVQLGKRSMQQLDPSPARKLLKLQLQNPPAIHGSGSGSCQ
T1 sequence (looked up) 2: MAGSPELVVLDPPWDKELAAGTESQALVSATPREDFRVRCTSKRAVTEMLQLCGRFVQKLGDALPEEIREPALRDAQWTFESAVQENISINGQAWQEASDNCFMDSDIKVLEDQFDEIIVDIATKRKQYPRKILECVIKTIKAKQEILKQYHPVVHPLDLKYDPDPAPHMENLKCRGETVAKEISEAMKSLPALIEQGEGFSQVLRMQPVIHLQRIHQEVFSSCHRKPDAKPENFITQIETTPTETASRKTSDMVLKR
T1 sequence (looked up) 3: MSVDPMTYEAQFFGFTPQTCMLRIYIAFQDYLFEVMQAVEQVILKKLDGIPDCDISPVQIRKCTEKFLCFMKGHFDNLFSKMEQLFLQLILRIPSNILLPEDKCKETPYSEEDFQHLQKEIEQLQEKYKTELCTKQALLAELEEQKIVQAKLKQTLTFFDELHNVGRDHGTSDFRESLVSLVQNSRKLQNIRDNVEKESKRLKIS
T1 sequence (looked up) 4: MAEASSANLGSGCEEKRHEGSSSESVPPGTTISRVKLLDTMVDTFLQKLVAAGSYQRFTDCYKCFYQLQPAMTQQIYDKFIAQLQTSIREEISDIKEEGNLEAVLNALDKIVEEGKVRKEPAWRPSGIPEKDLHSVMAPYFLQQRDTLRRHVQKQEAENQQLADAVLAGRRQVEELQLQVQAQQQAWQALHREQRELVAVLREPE

B1: Spc24–Spc25 complex (Spc24^92–197, Spc25^70–224) (complex, human)
chain 1: EEDTRLKASLLQLTRELEELKEIEADLERQEKEVDEDTTVTIPSAVYVAQLYHQVSKIEWDYECEPGMVKGIHHGPSVAQPIHLDSTQLSRKFISDYLWSLVDTEW
chain 2: RQNKLIQEKKDNLLKLIAEVKGKKQELEVLTANIQDLKEEYSRKKETISTANKANAERLKRLQKSADLYKDRLGLEIRKIYGEKLQFIFTNIDPKNPESPFMFSLHLNEARDYEVSDSAPHLEGLAEFQENVRKTNNFSAFLANVRKAFTATVYN
B2: Recombinant Mis12C-WT (construct not told for this experiment) (complex)
chain 1: T1 sequence (looked up) 1
chain 2: T1 sequence (looked up) 2
chain 3: T1 sequence (looked up) 3
chain 4: T1 sequence (looked up) 4

Tests used:
CENP-C = CENP-C (UniProt Q03188); experiment: anti-GFP IP, immunoblot; conditions: reference: Dsn1-WT-GFP; sites S100,S109
[1] = molecular target: T1, His6-tagged recombinant Mis12C …; experiment: pull-down
[2] = molecular target: fluorescein-labeled CENP-C^1–28 peptide (human, 5FAM (fluorescein) on the N-terminus); experiment: MST
[3] = molecular target: B1; experiment: pull-down

In the case of “Dsn1 (from UniProt Q9H410) Dsn1-S100A/S109A-GFP”, the “binding against the reference” value (CENP-C) is reported as “weaker”.

B1: binds [1].

B2 showed a Kd [2] of 2100 ± 400 nM.

HLEEQ[pT]PRTLLKNILLTAPESSILM (peptide, UniProt Q96BT3 80-104, looked up) [synthetic phospho-T85 CENP-T peptide containing residues 80–104]: binds [3].
